The target of data set [1] is T1, WRKY50BD (Arabidopsis thaliana Col-0, UniProt Q8VWQ5 86-173). Briefly: competition EMSA; 100-fold excess vs S21 probe; EMSA with 4-5 ug recombinant protein, 32P probe, 100-fold molar excess competitor; binding buffer, salt, pH and temperature not given (cites Kanofsky et al. 2018). Particulars: tags: His tag (pQE-30, Ni purification; tag not spelled out).
The target of data set [2] is T1, WRKY50BD. Briefly: competition EMSA; 100-fold excess vs S15 probe; EMSA with 4-5 ug recombinant protein, 32P probe, 100-fold molar excess competitor; binding buffer, salt, pH and temperature not given (cites Kanofsky et al. 2018). Particulars: tags: His tag (pQE-30, Ni purification; tag not spelled out).
The target of data set [3] is T1, WRKY50BD. In words: competition EMSA; 100-fold excess vs S24 probe; EMSA with 4-5 ug recombinant protein, 32P probe, 100-fold molar excess competitor; binding buffer, salt, pH and temperature not given (cites Kanofsky et al. 2018). Particulars: tags: His tag (pQE-30, Ni purification; tag not spelled out).
Data set [4] deals with T1, WRKY50BD. Briefly: EMSA; EMSA with 4-5 ug recombinant protein, 32P probe, 100-fold molar excess competitor; binding buffer, salt, pH and temperature not given (cites Kanofsky et al. 2018). Particulars: tags: His tag (pQE-30, Ni purification; tag not spelled out), label: 32P end label (as probe).
Data set [5] deals with T1, WRKY50BD. Briefly: competition EMSA; 100-fold excess vs S22 probe; EMSA with 4-5 ug recombinant protein, 32P probe, 100-fold molar excess competitor; binding buffer, salt, pH and temperature not given (cites Kanofsky et al. 2018). Particulars: tags: His tag (pQE-30, Ni purification; tag not spelled out).
The target in data set [6] is WRKY50 full length (Arabidopsis thaliana Col-0, UniProt Q8VWQ5 1-173). Briefly: EMSA; EMSA with 4-5 ug recombinant protein, 32P probe, 100-fold molar excess competitor; binding buffer, salt, pH and temperature not given (cites Kanofsky et al. 2018). Particulars: label: 32P end label (as probe).
Sequence of WRKY50 full length (Q8VWQ5 whole entry): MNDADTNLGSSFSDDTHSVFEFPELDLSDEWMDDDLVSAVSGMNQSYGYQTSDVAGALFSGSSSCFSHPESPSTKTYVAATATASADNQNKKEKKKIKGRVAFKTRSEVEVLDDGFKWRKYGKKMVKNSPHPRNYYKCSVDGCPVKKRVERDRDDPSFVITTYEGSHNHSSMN

T1 sequence (Q8VWQ5 86-173): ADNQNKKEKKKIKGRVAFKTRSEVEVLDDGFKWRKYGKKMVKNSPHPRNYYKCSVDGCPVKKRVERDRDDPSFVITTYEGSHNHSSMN

B1: S21mut3 (dsDNA)
DNA 1: TTTATGTCCAGTATTTACTGTATAG
DNA 2: CTATACAGTAAATACTGGACATAAA
In the case of B1, the binding result in data set [1] is “no binding”.

B2: S15mut13 (dsDNA)
DNA 1: AGAGTCCCCCACCAGTTGAGTCCCAAAGCCACCAA
DNA 2: TTGGTGGCTTTGGGACTCAACTGGTGGGGGACTCT
As for B2, in data set [2], the binding result is given as “no binding”.

B3: S24mut2 (dsDNA)
DNA 1: TAACTGGCATGTTGGACTTTCCAAATTCACCAGTT
DNA 2: AACTGGTGAATTTGGAAAGTCCAACATGCCAGTTA
Consider B3, for which the binding result in data set [3] was “binds”.

B4: S24 (CRM1-WRKY30) (dsDNA)
DNA 1: TGGTCAGCATGTTGGACTTTCCAAATTCATTGACC
DNA 2: GGTCAATGAATTTGGAAAGTCCAACATGCTGACCA
Consider B4, for which the binding result in data set [4] was “binds”.

B5: S22mut2 (dsDNA)
DNA 1: GAGAGAGATAGTCCAGTCTTTTGACTGAAGAACGA
DNA 2: TCGTTCTTCAGTCAAAAGACTGGACTATCTCTCTC
Regarding B5, the binding result in data set [5] was “no binding”.

B6: S21 (CRM-ATBBE4) (dsDNA)
DNA 1: TTTATGTTTGACTTTTGTCATATAG
DNA 2: CTATATGACAAAAGTCAAACATAAA
For B6, the binding result in data set [6] is reported as “no binding”; in data set [4], “binds”.

B7: S15 (CRM-DJ1E) (dsDNA)
DNA 1: AGGACTTTTCACCAGTTGGACTTTGAAGCCACCAA
DNA 2: TTGGTGGCTTCAAAGTCCAACTGGTGAAAAGTCCT
For the molecule B7, in data set [4], the binding result is recorded as “binds”.

B8: S24mut9 (dsDNA)
DNA 1: TGGTCAGCATGTTGGACTTTCCGGGCCTGTTGACC
DNA 2: GGTCAACAGGCCCGGAAAGTCCAACATGCTGACCA
With B8, the binding result in data set [3] was “binds”.

B9: S21mut5 (dsDNA)
DNA 1: TTTATGTTTGACTCCCGTCATATAG
DNA 2: CTATATGACGGGAGTCAAACATAAA
Consider B9, for which the binding result in data set [1] is reported as “no binding”.

B10: S15mut1 (dsDNA)
DNA 1: AGAGTCCCCCACCAGTTGGACTTTGAAGCCACCAA
DNA 2: TTGGTGGCTTCAAAGTCCAACTGGTGGGGGACTCT
For the molecule B10, in data set [2], the binding result is recorded as “binds”.

B11: S24mut7 (dsDNA)
DNA 1: TAACTGGCATGTTAAGTCCCTTAAATTCACCAGTT
DNA 2: AACTGGTGAATTTAAGGGACTTAACATGCCAGTTA
Regarding B11, the binding result in data set [3] is listed as “no binding”.

B12: S15mut2 (dsDNA)
DNA 1: AGGACTTTTTCTTCACCAGACTTTGAAGCCACCAA
DNA 2: TTGGTGGCTTCAAAGTCTGGTGAAGAAAAAGTCCT
For the molecule B12, the binding result in data set [2] was “binds”.

B13: S15mut4 (dsDNA)
DNA 1: AGGACTTTTCACCAGTTGGACTTTGGGATTGTTGG
DNA 2: CCAACAATCCCAAAGTCCAACTGGTGAAAAGTCCT
As for B13, in data set [2], the binding result is recorded as “binds”.

B14: S22mut4 (dsDNA)
DNA 1: GAGAGAGATAGTTTAGTCCCCCGACTGAAGAACGA
DNA 2: TCGTTCTTCAGTCGGGGGACTAAACTATCTCTCTC
For B14, in data set [5], the binding result is “no binding”.

B15: S22 (CRM2-WRKY30) (dsDNA)
DNA 1: GAGAGAGATAGTTTGACTTTTTGACTGAAGAACGA
DNA 2: TCGTTCTTCAGTCAAAAAGTCAAACTATCTCTCTC
For the molecule B15, the binding result in data set [4] is listed as “binds”.

B16: S22mut5 (dsDNA)
DNA 1: GAGAGAGATAGTTTGACTCCTTGACTGAAGAACGA
DNA 2: TCGTTCTTCAGTCAAGGAGTCAAACTATCTCTCTC
As to B16, the binding result in data set [5] is “no binding”.

B17: S21mut1 (dsDNA)
DNA 1: TTTATGTCCAGTATTTGTCATATAG
DNA 2: CTATATGACAAATACTGGACATAAA
For B17, in data set [1], the binding result was “no binding”.

B18: S21mut2 (dsDNA)
DNA 1: TTTATGTTTGACTTTTACTGTATAG
DNA 2: CTATACAGTAAAAGTCAAACATAAA
For B18, the binding result in data set [1] is “binds”.

B19: S21mut4 (dsDNA)
DNA 1: TTTATGTTTAGTCCCTGTCATATAG
DNA 2: CTATATGACAGGGACTAAACATAAA
Take B19: in data set [1], the binding result is on record as “no binding”.

B20: S24mut8 (dsDNA)
DNA 1: TGGTCAATGCACCGGACTTTCCAAATTCATTGACC
DNA 2: GGTCAATGAATTTGGAAAGTCCGGTGCATTGACCA
With B20, the binding result in data set [3] is “binds”.

B21: S15mut3 (dsDNA)
DNA 1: AGGACTTTTCACCAGTTGAGTCCCAAAGCCACCAA
DNA 2: TTGGTGGCTTTGGGACTCAACTGGTGAAAAGTCCT
Regarding B21, in data set [2], the binding result is on record as “binds”.

B22: S22mut3 (dsDNA)
DNA 1: GAGAGAGATAGTCCAGTCTTCCAGTCGAAGAACGA
DNA 2: TCGTTCTTCGACTGGAAGACTGGACTATCTCTCTC
As for B22, the binding result in data set [5] is “no binding”.

These data come from publication PMC7811519, “Unusual DNA-binding properties of the Arabidopsis thaliana WRKY50 transcription factor at target gene promoters”.
